This is an account of results in publication PMC5561102, “Fusion protein analysis reveals the precise regulation between Hsp70 and Hsp100 during protein disaggregation” (Scientific Reports, 2017).

In assay [1] the target is TK-B (Thermus thermophilus) (UniProt Q56235).
Assay [2] deals with TK_ΔSBDα_T195A-B (Thermus thermophilus) (UniProt Q56235).
Assay [3] has as its target ClpB (Escherichia coli) (UniProt P63284). Conditions: cited from earlier work.
Assay [4] deals with TK_NBD-B (Thermus thermophilus) (UniProt Q56235).
Assay [5] concerns the target TK_ΔSBDα_K69A-B (Thermus thermophilus) (UniProt Q56235).
The target of assay [6] is TK_NBD-B (Thermus thermophilus) (UniProt Q56235). This is another data set of the same source.
Target sequence in this assay (Q56235 other isoform, or with tags, fused parts or gaps): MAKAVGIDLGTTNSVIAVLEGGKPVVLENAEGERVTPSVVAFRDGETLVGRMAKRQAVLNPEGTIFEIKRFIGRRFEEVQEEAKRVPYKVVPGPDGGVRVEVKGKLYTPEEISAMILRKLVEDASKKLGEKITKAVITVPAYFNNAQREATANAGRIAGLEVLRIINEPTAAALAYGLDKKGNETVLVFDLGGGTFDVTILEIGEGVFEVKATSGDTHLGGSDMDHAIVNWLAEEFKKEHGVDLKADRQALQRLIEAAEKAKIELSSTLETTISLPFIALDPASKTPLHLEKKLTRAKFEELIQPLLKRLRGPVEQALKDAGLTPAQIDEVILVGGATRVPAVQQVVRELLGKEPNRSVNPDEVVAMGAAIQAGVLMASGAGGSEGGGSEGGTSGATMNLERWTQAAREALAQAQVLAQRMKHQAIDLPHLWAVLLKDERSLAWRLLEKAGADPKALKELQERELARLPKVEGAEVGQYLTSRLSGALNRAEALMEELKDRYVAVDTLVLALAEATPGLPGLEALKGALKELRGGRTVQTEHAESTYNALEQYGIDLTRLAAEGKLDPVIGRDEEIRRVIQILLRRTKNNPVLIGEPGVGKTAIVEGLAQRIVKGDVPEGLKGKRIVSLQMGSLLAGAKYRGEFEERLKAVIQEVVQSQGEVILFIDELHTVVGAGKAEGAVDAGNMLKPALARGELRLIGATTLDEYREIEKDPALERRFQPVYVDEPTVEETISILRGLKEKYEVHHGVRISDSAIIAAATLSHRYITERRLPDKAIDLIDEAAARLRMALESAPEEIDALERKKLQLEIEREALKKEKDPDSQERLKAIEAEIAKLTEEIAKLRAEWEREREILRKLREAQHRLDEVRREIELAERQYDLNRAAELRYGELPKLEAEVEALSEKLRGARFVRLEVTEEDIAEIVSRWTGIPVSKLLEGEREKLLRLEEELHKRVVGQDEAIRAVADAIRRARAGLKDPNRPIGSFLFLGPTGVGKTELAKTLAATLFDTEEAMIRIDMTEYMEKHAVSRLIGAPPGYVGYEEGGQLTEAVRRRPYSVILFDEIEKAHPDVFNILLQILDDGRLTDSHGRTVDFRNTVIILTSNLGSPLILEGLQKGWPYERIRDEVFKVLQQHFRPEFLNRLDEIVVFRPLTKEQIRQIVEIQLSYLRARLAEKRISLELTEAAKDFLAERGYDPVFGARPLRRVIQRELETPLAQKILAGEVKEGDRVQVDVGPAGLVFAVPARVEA
For assay [7], the target named is TK_NBD_K69A-B (Thermus thermophilus) (UniProt Q56235).
TK_NBD_K69A-B (Thermus thermophilus), sequence (Q56235 other isoform, or with tags, fused parts or gaps K69A | K69A): as the sequence (Q56235 other isoform, or with tags, fused parts or gaps) above, with K69A counted along it
Assay [8] concerns the target TK_NBD_T195A-B (Thermus thermophilus) (UniProt Q56235).
Assay [9] concerns the target TK_NBD-B (Thermus thermophilus) (UniProt Q56235). The source holds these as a separate data set.
Target sequence in this assay (Q56235 other isoform, or with tags, fused parts or gaps): as the sequence (Q56235 other isoform, or with tags, fused parts or gaps) above
The target in assay [10] is TK_NBD_K69A-B (Thermus thermophilus) (UniProt Q56235). This is another data set of the same source.
The target of assay [11] is TK_NBD_T195A-B (Thermus thermophilus) (UniProt Q56235). This is another data set of the same source.
TK_NBD_T195A-B (Thermus thermophilus), sequence (Q56235 other isoform, or with tags, fused parts or gaps T195A | T195A): as the sequence (Q56235 other isoform, or with tags, fused parts or gaps) above, with T195A counted along it

pKd: −log10 of the molar value. A value given as a limit tells only on which side of the number the result lay.

Thermus thermophilus DnaK (TDnaK), sequence (Q56235 whole entry): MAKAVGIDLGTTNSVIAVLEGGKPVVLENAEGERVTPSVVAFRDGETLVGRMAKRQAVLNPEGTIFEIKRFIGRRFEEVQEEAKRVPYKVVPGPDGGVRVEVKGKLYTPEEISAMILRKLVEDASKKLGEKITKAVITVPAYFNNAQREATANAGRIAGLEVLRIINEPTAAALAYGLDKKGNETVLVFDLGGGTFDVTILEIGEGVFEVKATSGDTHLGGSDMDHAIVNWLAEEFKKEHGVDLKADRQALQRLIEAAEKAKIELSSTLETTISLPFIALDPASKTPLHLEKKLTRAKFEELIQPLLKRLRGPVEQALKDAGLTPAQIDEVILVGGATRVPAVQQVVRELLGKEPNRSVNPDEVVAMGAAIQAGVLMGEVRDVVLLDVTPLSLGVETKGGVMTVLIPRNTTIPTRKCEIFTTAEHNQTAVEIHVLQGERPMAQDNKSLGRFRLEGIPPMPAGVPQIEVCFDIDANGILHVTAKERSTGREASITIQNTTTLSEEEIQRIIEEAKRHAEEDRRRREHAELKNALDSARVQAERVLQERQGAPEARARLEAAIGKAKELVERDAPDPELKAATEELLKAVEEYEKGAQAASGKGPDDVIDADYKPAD
ClpB (Escherichia coli), sequence (P63284 whole entry): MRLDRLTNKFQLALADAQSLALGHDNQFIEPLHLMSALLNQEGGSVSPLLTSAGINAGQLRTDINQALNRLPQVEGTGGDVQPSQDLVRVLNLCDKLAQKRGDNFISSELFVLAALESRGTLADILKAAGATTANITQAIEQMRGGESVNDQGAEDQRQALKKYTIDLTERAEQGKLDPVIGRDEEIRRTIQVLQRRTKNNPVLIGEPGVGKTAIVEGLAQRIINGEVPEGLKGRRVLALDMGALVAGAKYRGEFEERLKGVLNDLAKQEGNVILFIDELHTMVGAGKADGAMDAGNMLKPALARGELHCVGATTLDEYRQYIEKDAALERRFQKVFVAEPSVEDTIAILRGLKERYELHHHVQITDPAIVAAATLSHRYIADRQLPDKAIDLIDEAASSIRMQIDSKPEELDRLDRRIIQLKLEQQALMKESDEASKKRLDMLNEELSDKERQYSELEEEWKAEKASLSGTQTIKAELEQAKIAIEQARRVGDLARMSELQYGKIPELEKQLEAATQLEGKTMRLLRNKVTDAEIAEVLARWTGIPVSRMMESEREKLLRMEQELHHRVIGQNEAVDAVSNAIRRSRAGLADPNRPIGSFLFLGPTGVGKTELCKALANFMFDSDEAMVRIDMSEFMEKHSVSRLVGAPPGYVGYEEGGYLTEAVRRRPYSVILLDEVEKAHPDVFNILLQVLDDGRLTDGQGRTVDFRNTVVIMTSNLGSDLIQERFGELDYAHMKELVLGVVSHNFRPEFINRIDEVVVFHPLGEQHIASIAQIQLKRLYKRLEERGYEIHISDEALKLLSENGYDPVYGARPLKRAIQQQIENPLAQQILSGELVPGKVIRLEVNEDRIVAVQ
DnaK, sequence (P0A6Y8 2-638): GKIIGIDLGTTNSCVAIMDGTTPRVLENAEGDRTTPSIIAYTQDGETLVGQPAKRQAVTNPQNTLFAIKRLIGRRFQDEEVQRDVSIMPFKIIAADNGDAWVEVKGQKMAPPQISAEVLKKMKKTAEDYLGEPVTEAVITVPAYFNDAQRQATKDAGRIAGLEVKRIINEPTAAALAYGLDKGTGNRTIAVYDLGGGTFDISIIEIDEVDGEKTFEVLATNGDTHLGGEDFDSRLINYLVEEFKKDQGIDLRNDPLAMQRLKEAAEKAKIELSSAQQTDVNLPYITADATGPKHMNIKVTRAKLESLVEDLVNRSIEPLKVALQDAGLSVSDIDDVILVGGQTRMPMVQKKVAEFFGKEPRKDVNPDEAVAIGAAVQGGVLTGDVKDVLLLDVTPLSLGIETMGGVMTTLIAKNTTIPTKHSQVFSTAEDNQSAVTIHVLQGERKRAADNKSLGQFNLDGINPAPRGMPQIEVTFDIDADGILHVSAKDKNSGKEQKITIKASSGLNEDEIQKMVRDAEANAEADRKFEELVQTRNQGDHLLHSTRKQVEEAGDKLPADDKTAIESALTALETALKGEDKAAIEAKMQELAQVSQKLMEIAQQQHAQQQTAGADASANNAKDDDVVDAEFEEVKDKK

For “TK-B (from UniProt Q56235 1-615; Q9RA63 1-854)”, the ATPase activity of the fusion (TClpB portion stimulated by the fused TDnaK portion), 55 °C, 3 mM ATP, against unfused TClpB (times that of TClpB) in [1] is 5. On to “TK_ΔSBDα_T195A-B (from UniProt Q56235 1-501; Q9RA63 1-854)”, for which the ATPase stimulation of the fusion, 55 °C, 3 mM ATP in [2] amounted to 2 fold. For the substance DnaK (from UniProt P0A6Y8), in assay [3], the pKd (commonly −log10 of the Kd, conventionally taken in molar units) was 4.60. As to “TK_NBD-B (from UniProt Q56235 1-377; Q9RA63 1-854)”, the ATPase activity of the fusion (TClpB portion stimulated by the fused NBD of TDnaK), 55 °C, 3 mM ATP, against TK-B in assay [4] was 2 fold of TK-B. In assay [5], “TK_ΔSBDα_K69A-B (from UniProt Q56235 1-501; Q9RA63 1-854)” registered an ATPase activity of the fusion, 55 °C, 3 mM ATP, against TK K69A-B (fold of TK K69A-B) of 1.5. Take “Thermus thermophilus DnaK (TDnaK) (from UniProt Q56235 1-615) (natural protein)”: the reactivation of heat-aggregated α-glucosidase by the fusion with unfused TDnaK, TDnaJ, TGrpE (TKJE) and 5 mM ATP, 55 °C, 90 min in assay [6], in assay [7] and in [8] was less than 2% in each case. Besides, the rate of reactivation of heat-aggregated EYFP by the fusion with unfused TDnaK, TDnaJ, TGrpE (TKJE) and 5 mM ATP, 55 °C in assay [9], in assay [10] and in assay [11] was less than 0.1 % min^-1 in each case.
